Assay results from US20240010696A1 (Pfizer, published 2024).

Experiments:
[1] = target: T1, human PD1 (human, UniProt Q15116 25-167, limits assumed); experiment: binding kinetics to hPD1, method not stated
T1 construct: the construct is not described; also called hPD1; programmed cell death protein 1

[2] = target: human IL-12 receptor on cells (human, UniProt P42701 24-662; Q99665 24-862); experiment: cell-based or functional assay
Sequence of human IL-12 receptor on cells (Q99665 24-862, chain 2 of 2, other chains not shown): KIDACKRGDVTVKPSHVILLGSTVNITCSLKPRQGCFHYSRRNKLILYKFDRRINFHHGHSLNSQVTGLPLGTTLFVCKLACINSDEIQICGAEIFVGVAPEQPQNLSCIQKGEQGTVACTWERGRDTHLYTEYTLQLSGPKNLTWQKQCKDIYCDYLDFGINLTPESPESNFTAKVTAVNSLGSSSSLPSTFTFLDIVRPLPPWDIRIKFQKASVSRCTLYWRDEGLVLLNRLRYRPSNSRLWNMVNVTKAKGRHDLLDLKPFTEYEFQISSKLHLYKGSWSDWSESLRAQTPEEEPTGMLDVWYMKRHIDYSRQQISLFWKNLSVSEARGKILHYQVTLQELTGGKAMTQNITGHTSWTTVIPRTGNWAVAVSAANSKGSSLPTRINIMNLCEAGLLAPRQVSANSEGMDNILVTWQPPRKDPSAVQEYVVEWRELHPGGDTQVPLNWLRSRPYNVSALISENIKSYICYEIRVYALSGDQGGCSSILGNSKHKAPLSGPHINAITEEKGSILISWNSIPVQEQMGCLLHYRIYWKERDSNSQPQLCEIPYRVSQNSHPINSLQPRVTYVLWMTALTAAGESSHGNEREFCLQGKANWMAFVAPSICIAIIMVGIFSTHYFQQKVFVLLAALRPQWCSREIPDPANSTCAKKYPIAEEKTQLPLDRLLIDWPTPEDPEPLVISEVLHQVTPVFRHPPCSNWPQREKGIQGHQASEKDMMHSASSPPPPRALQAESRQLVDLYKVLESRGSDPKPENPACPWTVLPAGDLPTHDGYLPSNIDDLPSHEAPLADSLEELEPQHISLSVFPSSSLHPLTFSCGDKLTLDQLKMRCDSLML

T1 sequence (Q15116 25-167 limits assumed): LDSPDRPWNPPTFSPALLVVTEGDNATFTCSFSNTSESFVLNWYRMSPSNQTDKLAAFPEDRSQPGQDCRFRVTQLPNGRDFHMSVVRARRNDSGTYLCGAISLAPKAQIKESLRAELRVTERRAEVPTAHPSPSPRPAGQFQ

Binder	Kd [1]	koff [1]	kon [1]	t1/2 [1]	CD4 T cell activation assay PSTAT4 EC50 (ug/ml); Donor #1 [2]	CD4 T cell activation assay PSTAT4 EC50 (ug/ml); Donor #2 [2]
TPP-76868 (antibody, V domains shown) VH: EVQLVESGGGLVQPGGSLRLSCAASGFSFGDFDMRWFRQAPGKGLEWVGLIKSRAYLEATEFAASVEGRFTISRDDAKNSAYLQMNSLRAEDTAVYYCTRDSYSSGLLDYWGQGTLVTVSS VL: DIQMTQSPSSLSASVGDRVTITCRASQGISNYLAWFQQKPGKAPKRLIYAAQIPGSGVPSRFSGSGSGTDFTLTISSLQPEDFATYYCLQHYSYPLTFGGGTKVEIK	3 nM	0.000391 s⁻¹	135000 M⁻¹ s⁻¹	1770 s (not printed; inferred from ln2/kd)		
TPP-68807 (antibody, V domains shown) VH: EVQLVESGGGLVQPGGSLRLSCAASGFSFGDFDMRWFRQAPGKGLEWVGLIKSKAYRYATEFAASVEGRFTISRDDAKNSAYLQMNSLRAEDTAVYYCTRDSYSSGLLDYWGQGTLVTVSS VL: DIQMTQSPSSLSASVGDRVTITCRASQGISNYLAWFQQKPGKAPKRLIYAASIPGSGVPSRFSGSGSGTDFTLTISSLQPEDFATYYCLQHKSYPLTFGGGTKVEIK	3 nM	0.000251 s⁻¹	78500 M⁻¹ s⁻¹	2760 s (not printed; inferred from ln2/kd)		

Results, then the binder that gave them:

Kd [1]	koff [1]	kon [1]	t1/2 [1]	CD4 T cell activation assay PSTAT4 EC50 (ug/ml); Donor #1 [2]	CD4 T cell activation assay PSTAT4 EC50 (ug/ml); Donor #2 [2]	Binder
7 nM	0.000765 s⁻¹	109000 M⁻¹ s⁻¹	906 s (not printed; inferred from ln2/kd)			TPP-77658 (antibody, V domains shown) VH: EVQLVESGGGLVQPGGSLRLSCAASGFSFGDFDMRWFRQAPGKGLEWVGTIKSRAYLEATEFAASVEGRFTISRDDAKNSAYLQMNSLRAEDTAVYYCTRDAYSSGLLDYWGQGTLVTVSS VL: DIQMTQSPSSLSASVGDRVTITCRASQGISNYLAWFQQKPGKAPKRLIYAAQIPGSGVPSRFSGSGSGTDFTLTISSLQPEDFATYYCLQHYSYPLTFGGGTKVEIK
				0.139 µg/mL	0.998 µg/mL	H10/TPP-76868 fusion protein (other) heavy 1: EVQLVESGGGLVQPGGSLRLSCAASGFSFGDFDMRWFRQAPGKGLEWVGLIKSRAYLEATEFAASVEGRFTISRDDAKNSAYLQMNSLRAEDTAVYYCTRDSYSSGLLDYWGQGTLVTVSSASTKGPSVFPLAPSSKSTSGGTAALGCLVKDYFPEPVTVSWNSGALTSGVHTFPAVLQSSGLYSLSSVVTVPSSSLGTQTYICNVNHKPSNTKVDKKVEPKSCDKTHTCPPCPAPEAAGAPSVFLFPPKPKDTLMISRTPEVTCVVVDVSHEDPEVKFNWYVDGVEVHNAKTKPREEQYNSTYRVVSVLTVLHQDWLNGKEYKCKVSNKALPAPIEKTISKAKGQPREPQVYTLPPCREEMTKNQVSLSCAVKGFYPSDIAVEWESNGQPENNYKTTPPVLDSDGSFFLVSKLTVDKSRWQQGNVFSCSVMHEALHNHYTQKSLSLSPGK heavy 2: EVQLVESGGGLVQPGGSLRLSCAASGFSFGDFDMRWFRQAPGKGLEWVGLIKSRAYLEATEFAASVEGRFTISRDDAKNSAYLQMNSLRAEDTAVYYCTRDSYSSGLLDYWGQGTLVTVSSASTKGPSVFPLAPSSKSTSGGTAALGCLVKDYFPEPVTVSWNSGALTSGVHTFPAVLQSSGLYSLSSVVTVPSSSLGTQTYICNVNHKPSNTKVDKKVEPKSCDKTHTCPPCPAPEAAGAPSVFLFPPKPKDTLMISRTPEVTCVVVDVSHEDPEVKFNWYVDGVEVHNAKTKPREEQYNSTYRVVSVLTVLHQDWLNGKEYKCKVSNKALPAPIEKTISKAKGQPREPQVCTLPPSREEMTKNQVSLWCLVKGFYPSDIAVEWESNGQPENNYKTTPPVLDSDGSFFLYSKLTVDKSRWQQGNVFSCSVMHEALHNHYTQKSLSLSPGSGGGGSGGGGSGGGGRNLPVATPDPGMFPCLHHSQNLLRAVSNMLQKARQTLEFYPCTSEEIDHEDITKDKTSTVEACLPLELTKNESCLNSRETSFITNGSCLASRKTSFMMALCLSSIYEDLKMYQVEFKTMNAKLLMDPKRQIFLDQNMLAVIDELMQALNFNSETVPQKSSLEEPDFAKTKIKLCILLHAFRIRAVTIDRVMSYLNAS light: DIQMTQSPSSLSASVGDRVTITCRASQGISNYLAWFQQKPGKAPKRLIYAAQIPGSGVPSRFSGSGSGTDFTLTISSLQPEDFATYYCLQHYSYPLTFGGGTKVEIKRTVAAPSVFIFPPSDEQLKSGTASVVCLLNNFYPREAKVQWKVDNALQSGNSQESVTEQDSKDSTYSLSSTLTLSKADYEKHKVYACEVTHQGLSSPVTKSFNRGEC IWELKKDVYVVELDWYPDAPGEMVVLTCDTPEEDGITWTLDQSSEVLGSGKTLTIQVKEFGDAGQYTCHKGGEVLSHSLLLLHKKEDGIWSTLILKDQKEPKNKTFLRCEAKNYSGRFTCWWLTTISTDLTFSVKSSRGSSDPQGVTCGAATLSAERVRGDNKEYEYSVECQEDSACPAAEESLPIEVMVDAVHKLKYENYTSSFFIRDIIKPDPPKNLQLKPLKNSRQVEVSWEYPDTWSTPHSYFSLTFCVQVQGGGGDRVFTDKTSATVICRKNASISVRAQDRYYSSSWSEWASVPCS
				0.235 µg/mL	1.54 µg/mL	H10/TPP-77658 fusion protein (other) heavy 1: EVQLVESGGGLVQPGGSLRLSCAASGFSFGDFDMRWFRQAPGKGLEWVGTIKSRAYLEATEFAASVEGRFTISRDDAKNSAYLQMNSLRAEDTAVYYCTRDAYSSGLLDYWGQGTLVTVSSASTKGPSVFPLAPSSKSTSGGTAALGCLVKDYFPEPVTVSWNSGALTSGVHTFPAVLQSSGLYSLSSVVTVPSSSLGTQTYICNVNHKPSNTKVDKKVEPKSCDKTHTCPPCPAPEAAGAPSVFLFPPKPKDTLMISRTPEVTCVVVDVSHEDPEVKFNWYVDGVEVHNAKTKPREEQYNSTYRVVSVLTVLHQDWLNGKEYKCKVSNKALPAPIEKTISKAKGQPREPQVYTLPPCREEMTKNQVSLSCAVKGFYPSDIAVEWESNGQPENNYKTTPPVLDSDGSFFLVSKLTVDKSRWQQGNVFSCSVMHEALHNHYTQKSLSLSPGK heavy 2: EVQLVESGGGLVQPGGSLRLSCAASGFSFGDFDMRWFRQAPGKGLEWVGTIKSRAYLEATEFAASVEGRFTISRDDAKNSAYLQMNSLRAEDTAVYYCTRDAYSSGLLDYWGQGTLVTVSSASTKGPSVFPLAPSSKSTSGGTAALGCLVKDYFPEPVTVSWNSGALTSGVHTFPAVLQSSGLYSLSSVVTVPSSSLGTQTYICNVNHKPSNTKVDKKVEPKSCDKTHTCPPCPAPEAAGAPSVFLFPPKPKDTLMISRTPEVTCVVVDVSHEDPEVKFNWYVDGVEVHNAKTKPREEQYNSTYRVVSVLTVLHQDWLNGKEYKCKVSNKALPAPIEKTISKAKGQPREPQVCTLPPSREEMTKNQVSLWCLVKGFYPSDIAVEWESNGQPENNYKTTPPVLDSDGSFFLYSKLTVDKSRWQQGNVFSCSVMHEALHNHYTQKSLSLSPGSGGGGSGGGGSGGGGRNLPVATPDPGMFPCLHHSQNLLRAVSNMLQKARQTLEFYPCTSEEIDHEDITKDKTSTVEACLPLELTKNESCLNSRETSFITNGSCLASRKTSFMMALCLSSIYEDLKMYQVEFKTMNAKLLMDPKRQIFLDQNMLAVIDELMQALNFNSETVPQKSSLEEPDFAKTKIKLCILLHAFRIRAVTIDRVMSYLNAS light: DIQMTQSPSSLSASVGDRVTITCRASQGISNYLAWFQQKPGKAPKRLIYAAQIPGSGVPSRFSGSGSGTDFTLTISSLQPEDFATYYCLQHYSYPLTFGGGTKVEIKRTVAAPSVFIFPPSDEQLKSGTASVVCLLNNFYPREAKVQWKVDNALQSGNSQESVTEQDSKDSTYSLSSTLTLSKADYEKHKVYACEVTHQGLSSPVTKSFNRGEC IWELKKDVYVVELDWYPDAPGEMVVLTCDTPEEDGITWTLDQSSEVLGSGKTLTIQVKEFGDAGQYTCHKGGEVLSHSLLLLHKKEDGIWSTLILKDQKEPKNKTFLRCEAKNYSGRFTCWWLTTISTDLTFSVKSSRGSSDPQGVTCGAATLSAERVRGDNKEYEYSVECQEDSACPAAEESLPIEVMVDAVHKLKYENYTSSFFIRDIIKPDPPKNLQLKPLKNSRQVEVSWEYPDTWSTPHSYFSLTFCVQVQGGGGDRVFTDKTSATVICRKNASISVRAQDRYYSSSWSEWASVPCS
